Source: the supplement of paper PMC10065799, “High-throughput profiling of sequence recognition by tyrosine kinases and SH2 domains using bacterial peptide display” (eLife, 2023)

Tests used:
[1] = system: AncSZ; assay: phosphorylation enrichment, bacterial display (enrichment ratio); higher = better substrate or ligand; peptides without Tyr show the background
[2] = molecular target: EPHB1 (UniProt P54762); assay: as above
[3] = molecular target: EPHB2 (UniProt P29323); assay: as above
[4] = molecular target: FGFR1 (UniProt P11362); assay: as above
FGFR1, sequence (P11362 whole entry, looked up): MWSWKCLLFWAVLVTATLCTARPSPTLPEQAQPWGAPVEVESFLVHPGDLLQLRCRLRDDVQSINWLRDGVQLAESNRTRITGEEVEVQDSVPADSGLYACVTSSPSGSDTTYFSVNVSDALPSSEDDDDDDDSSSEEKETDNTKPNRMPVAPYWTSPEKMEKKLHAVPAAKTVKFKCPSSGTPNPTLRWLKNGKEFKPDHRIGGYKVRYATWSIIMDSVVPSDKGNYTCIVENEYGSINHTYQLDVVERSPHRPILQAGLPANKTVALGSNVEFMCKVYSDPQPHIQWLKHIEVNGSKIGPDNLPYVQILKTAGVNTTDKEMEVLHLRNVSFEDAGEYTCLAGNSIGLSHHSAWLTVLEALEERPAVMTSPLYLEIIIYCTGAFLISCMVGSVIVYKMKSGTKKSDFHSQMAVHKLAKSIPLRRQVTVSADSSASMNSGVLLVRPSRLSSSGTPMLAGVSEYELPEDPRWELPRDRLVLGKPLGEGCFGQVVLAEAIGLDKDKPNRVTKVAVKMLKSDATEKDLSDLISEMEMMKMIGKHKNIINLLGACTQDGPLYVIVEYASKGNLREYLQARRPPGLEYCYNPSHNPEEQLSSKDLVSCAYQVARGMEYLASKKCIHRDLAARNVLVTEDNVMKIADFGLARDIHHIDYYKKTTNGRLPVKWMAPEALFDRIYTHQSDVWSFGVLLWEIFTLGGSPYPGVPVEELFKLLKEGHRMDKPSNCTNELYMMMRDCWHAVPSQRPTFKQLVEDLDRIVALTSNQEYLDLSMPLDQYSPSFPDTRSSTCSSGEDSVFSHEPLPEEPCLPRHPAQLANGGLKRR

[5] = molecular target: FGFR3 (UniProt P22607); assay: as above
[6] = system: Fer (mouse); assay: as above
[7] = molecular target: Fes (UniProt P07332); assay: as above
[8] = molecular target: Fyn (UniProt P06241); assay: as above
Fyn, sequence (P06241 whole entry, looked up): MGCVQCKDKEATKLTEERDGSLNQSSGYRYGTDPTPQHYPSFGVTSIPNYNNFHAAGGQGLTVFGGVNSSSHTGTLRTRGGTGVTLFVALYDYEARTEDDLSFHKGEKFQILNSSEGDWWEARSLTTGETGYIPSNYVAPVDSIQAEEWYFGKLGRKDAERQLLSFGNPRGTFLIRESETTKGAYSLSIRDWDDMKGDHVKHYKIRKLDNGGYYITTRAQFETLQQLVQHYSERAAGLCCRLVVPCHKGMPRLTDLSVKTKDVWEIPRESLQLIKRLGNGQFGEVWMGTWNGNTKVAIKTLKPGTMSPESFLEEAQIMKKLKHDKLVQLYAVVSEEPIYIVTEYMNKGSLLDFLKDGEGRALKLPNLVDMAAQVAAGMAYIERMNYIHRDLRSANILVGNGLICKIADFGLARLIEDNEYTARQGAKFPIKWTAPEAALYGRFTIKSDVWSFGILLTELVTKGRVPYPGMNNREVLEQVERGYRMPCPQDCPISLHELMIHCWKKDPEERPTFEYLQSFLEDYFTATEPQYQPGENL

[9] = molecular target: Hck (UniProt P08631); assay: as above
Hck, sequence (P08631 whole entry, looked up): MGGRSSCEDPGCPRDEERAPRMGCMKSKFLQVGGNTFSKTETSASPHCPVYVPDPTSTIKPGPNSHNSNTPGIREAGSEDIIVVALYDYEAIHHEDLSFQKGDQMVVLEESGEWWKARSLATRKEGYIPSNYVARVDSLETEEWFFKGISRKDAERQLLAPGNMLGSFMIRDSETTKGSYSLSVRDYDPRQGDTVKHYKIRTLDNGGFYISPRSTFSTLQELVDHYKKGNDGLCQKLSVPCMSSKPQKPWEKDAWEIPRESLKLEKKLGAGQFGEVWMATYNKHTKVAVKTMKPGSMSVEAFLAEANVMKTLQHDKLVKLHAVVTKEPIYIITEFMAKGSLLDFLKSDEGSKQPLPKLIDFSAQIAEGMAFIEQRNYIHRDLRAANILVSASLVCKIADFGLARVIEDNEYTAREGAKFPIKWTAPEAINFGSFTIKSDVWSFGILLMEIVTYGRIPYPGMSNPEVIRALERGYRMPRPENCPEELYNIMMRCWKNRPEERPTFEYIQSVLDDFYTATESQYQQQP

[10] = molecular target: Jak2 (UniProt O60674); assay: as above
[11] = molecular target: MERTK (UniProt Q12866); assay: as above
MERTK, sequence (Q12866 whole entry, looked up): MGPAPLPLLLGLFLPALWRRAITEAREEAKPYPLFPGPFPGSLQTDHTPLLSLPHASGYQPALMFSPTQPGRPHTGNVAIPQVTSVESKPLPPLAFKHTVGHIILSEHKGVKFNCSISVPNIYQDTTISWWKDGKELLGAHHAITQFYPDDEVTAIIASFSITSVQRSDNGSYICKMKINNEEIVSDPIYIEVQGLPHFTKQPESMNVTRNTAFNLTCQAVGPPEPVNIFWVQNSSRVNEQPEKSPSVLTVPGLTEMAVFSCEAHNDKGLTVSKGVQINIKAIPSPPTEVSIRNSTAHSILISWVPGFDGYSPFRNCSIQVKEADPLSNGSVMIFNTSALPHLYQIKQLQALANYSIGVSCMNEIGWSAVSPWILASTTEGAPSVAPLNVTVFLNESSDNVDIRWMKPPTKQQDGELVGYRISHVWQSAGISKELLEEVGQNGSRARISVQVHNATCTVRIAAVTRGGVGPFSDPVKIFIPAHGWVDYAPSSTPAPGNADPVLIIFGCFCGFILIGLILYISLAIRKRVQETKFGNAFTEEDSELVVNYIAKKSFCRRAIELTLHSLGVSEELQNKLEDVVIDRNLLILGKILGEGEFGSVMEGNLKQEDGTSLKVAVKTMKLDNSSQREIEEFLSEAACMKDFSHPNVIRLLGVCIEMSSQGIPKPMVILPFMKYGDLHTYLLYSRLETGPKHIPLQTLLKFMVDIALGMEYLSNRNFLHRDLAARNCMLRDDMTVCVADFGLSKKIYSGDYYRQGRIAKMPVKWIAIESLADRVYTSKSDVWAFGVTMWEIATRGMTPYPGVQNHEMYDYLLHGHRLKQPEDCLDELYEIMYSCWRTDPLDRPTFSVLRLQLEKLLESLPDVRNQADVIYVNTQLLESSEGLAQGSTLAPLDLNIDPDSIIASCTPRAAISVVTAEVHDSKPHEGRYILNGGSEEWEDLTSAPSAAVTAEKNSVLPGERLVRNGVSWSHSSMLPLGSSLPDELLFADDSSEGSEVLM

[12] = system: c-Abl (mouse); assay: as above
[13] = system: c-Src; assay: as above
[14] = molecular target: Grb2 SH2 (UniProt P62993); assay: SH2 binding enrichment of the phosphorylated peptide, bacterial display (enrichment ratio); higher = better substrate or ligand; peptides without Tyr show the background
[15] = molecular target: SHP2-C SH2; assay: as above
[16] = molecular target: c-Src SH2; assay: as above
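For SH2 binding enrichment of the phosphorylated peptide, bacterial display in this document: peptide library displayed on the E. coli surface as eCPX fusions, selected cells deep-sequenced, score is each peptide's frequency after selection divided by its frequency in the input.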
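For phosphorylation enrichment, bacterial display in this document: 11-residue human phosphosite peptides and single-mutation variants displayed on the E. coli surface, counted by deep sequencing, each peptide's frequency after selection divided by its frequency in the unselected input library; frequency after pTyr selection over input frequency; kinase dosed for 20-30% of maximal phosphorylation in three min.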

EPHB2, sequence (P29323 whole entry, looked up): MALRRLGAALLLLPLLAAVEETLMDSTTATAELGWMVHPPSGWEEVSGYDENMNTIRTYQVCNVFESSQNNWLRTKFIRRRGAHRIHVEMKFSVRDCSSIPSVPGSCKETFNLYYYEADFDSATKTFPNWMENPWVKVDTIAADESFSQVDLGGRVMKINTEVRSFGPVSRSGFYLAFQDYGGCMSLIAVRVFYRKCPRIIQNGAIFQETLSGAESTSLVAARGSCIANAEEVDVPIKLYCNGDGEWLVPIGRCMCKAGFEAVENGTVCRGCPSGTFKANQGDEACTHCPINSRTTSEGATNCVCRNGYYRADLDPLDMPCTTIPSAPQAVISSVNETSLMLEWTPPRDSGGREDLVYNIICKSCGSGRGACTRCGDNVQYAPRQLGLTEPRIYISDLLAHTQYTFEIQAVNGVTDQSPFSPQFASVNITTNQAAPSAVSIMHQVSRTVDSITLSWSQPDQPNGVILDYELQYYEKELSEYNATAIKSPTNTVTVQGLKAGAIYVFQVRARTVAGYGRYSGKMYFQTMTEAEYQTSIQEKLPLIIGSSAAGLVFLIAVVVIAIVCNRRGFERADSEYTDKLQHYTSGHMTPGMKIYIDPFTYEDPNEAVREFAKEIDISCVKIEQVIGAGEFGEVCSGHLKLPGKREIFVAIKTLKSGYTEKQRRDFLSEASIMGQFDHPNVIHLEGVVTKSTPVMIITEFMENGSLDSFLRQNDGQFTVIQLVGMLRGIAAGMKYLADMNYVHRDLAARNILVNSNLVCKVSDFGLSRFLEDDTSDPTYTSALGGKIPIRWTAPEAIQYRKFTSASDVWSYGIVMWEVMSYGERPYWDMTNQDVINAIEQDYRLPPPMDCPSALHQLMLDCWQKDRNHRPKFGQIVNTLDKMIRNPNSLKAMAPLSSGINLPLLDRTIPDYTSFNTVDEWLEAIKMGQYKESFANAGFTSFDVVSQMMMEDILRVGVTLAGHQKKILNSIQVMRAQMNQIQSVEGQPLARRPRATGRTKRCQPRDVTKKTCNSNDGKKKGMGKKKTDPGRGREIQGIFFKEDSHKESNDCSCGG
EPHB1, sequence (P54762 whole entry, looked up): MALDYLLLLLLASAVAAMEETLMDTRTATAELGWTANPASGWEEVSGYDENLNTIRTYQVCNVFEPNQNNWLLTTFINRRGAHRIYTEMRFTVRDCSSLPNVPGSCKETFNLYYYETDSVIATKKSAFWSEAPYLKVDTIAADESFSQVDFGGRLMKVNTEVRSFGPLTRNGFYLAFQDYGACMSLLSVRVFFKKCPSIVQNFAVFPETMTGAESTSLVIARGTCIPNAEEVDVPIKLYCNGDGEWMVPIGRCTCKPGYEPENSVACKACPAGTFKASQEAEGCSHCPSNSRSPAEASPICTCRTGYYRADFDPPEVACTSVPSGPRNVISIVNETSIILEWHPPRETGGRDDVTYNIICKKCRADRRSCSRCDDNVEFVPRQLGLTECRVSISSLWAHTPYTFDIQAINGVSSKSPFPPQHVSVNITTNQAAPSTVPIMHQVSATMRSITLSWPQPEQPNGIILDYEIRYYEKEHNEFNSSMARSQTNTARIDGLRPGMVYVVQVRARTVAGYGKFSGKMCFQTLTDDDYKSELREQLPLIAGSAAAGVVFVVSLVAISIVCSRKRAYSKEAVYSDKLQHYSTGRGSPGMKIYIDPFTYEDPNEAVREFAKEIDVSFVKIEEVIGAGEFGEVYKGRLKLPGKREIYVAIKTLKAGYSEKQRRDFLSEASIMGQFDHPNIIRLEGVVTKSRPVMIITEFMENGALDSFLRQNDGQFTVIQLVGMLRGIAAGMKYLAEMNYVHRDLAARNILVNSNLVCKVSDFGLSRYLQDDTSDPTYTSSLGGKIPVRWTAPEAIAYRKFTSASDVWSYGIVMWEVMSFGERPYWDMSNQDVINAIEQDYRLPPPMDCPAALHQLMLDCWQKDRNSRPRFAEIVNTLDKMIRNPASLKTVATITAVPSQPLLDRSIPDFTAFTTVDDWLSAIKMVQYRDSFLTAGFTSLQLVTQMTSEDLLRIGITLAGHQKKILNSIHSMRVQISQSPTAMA

| Sequence | SH2 binding enrichment [14] | SH2 binding enrichment [15] | SH2 binding enrichment [16] | phosphorylation enrichment [1] | phosphorylation enrichment [2] | phosphorylation enrichment [3] | phosphorylation enrichment [4] | phosphorylation enrichment [5] | phosphorylation enrichment [6] | phosphorylation enrichment [7] | phosphorylation enrichment [8] | phosphorylation enrichment [9] | phosphorylation enrichment [10] | phosphorylation enrichment [11] | phosphorylation enrichment [12] | phosphorylation enrichment [13] |
| --- | --- | --- | --- | --- | --- | --- | --- | --- | --- | --- | --- | --- | --- | --- | --- | --- |
| PSGPAYRGAVP [ASAH1_Y43_T42A] | 0.72 | 0.455 | 0.49 | 0.664 | 0.74 | 0.431 | 0.809 | 0.423 | 0.533 | 0.759 | 0.539 | 0.459 | 0.736 | 0.476 | 0.758 | 0.506 |
| HKNNNYEPSLF [BRCA2_Y57_N60S] | 0.931 | 0.72 | 0.866 | 1.13 | 0.689 | 0.766 | 0.793 | 0.891 | 0.791 | 1 | 0.652 | 0.563 | 0.897 | 0.654 | 0.659 | 0.658 |
| FVPSFYHAFSG [ACTN4_Y265_S262P_YF] | 0.993 | 1.2 | 0.921 | 0.711 | 1.23 | 0.756 | 0.796 | 0.824 | 0.444 | 0.83 | 1.48 | 1.48 | 0.823 | 7.34 | 0.835 | 1.88 |
| PSPMPYAFCQM [FOXL2_Y215_S217F] | 0.64 | 0.774 | 1.7 | 1.87 | 1.3 | 1.28 | 2.61 | 2.31 | 9.08 | 2.17 | 0.706 | 0.934 | 1.75 | 1.41 | 1.44 | 1.99 |
| RGRSTYYWPRP [GAGE12J_Y9] | 0.8 | 0.55 | 0.501 | 0.869 | 0.656 | 0.707 | 0.742 | 0.869 | 0.607 | 0.546 | 0.68 | 0.762 | 0.715 | 0.98 | 0.859 | 0.494 |
| QVMDGYPMPIG [MMP14_Y353] | 0.675 | 0.423 | 0.572 | 0.861 | 0.673 | 0.511 | 0.529 | 0.629 | 0.53 | 0.964 | 0.564 | 0.601 | 0.987 | 0.906 | 1.03 | 0.517 |
| VISNAYVDLAP [HSD17B4_Y602] | 0.858 | 1.21 | 3.79 | 0.675 | 0.436 | 0.557 | 0.89 | 0.653 | 0.516 | 0.777 | 0.428 | 0.471 | 0.707 | 0.589 | 0.475 | 0.435 |
| FLTQHYDAEPQ [ANG_Y38_K41E] | 0.992 | 0.635 | 0.612 | 0.853 | 0.413 | 0.554 | 0.583 | 0.684 | 0.511 | 0.989 | 0.478 | 0.534 | 0.627 | 0.502 | 0.785 | 0.601 |
| VPLLEYFRDIF [CDAN1_Y712_YF] | 1.44 | 1.38 | 1.13 | 1.42 | 0.523 | 0.715 | 0.687 | 0.943 | 0.584 | 1.6 | 0.543 | 0.566 | 1.41 | 0.56 | 1.06 | 0.52 |
| NIISFYLSRDP [CTSD_Y232_F229I] | 1.59 | 1.41 | 1.11 | 1.18 | 0.529 | 0.498 | 0.516 | 0.773 | 0.43 | 1.27 | 0.446 | 0.451 | 0.958 | 0.36 | 0.655 | 0.346 |

Second part, led by results:

| SH2 binding enrichment [14] | SH2 binding enrichment [15] | SH2 binding enrichment [16] | Sequence | phosphorylation enrichment [1] | phosphorylation enrichment [2] | phosphorylation enrichment [3] | phosphorylation enrichment [4] | phosphorylation enrichment [5] | phosphorylation enrichment [6] | phosphorylation enrichment [7] | phosphorylation enrichment [8] | phosphorylation enrichment [9] | phosphorylation enrichment [10] | phosphorylation enrichment [11] | phosphorylation enrichment [12] | phosphorylation enrichment [13] |
| --- | --- | --- | --- | --- | --- | --- | --- | --- | --- | --- | --- | --- | --- | --- | --- | --- |
| 0.895 | 1.27 | 0.531 | HAVFVYDICHV [TWNK_Y508_YF] | 1.88 | 1.49 | 1.36 | 0.631 | 1.05 | 3.38 | 2.02 | 4.27 | 2.8 | 1.65 | 2.62 | 1.47 | 4.61 |
| 0.838 | 0.536 | 0.442 | CGLPRYRWLTH [TSPAN12_Y143_Y138C] | 0.848 | 0.47 | 0.645 | 0.435 | 0.476 | 0.438 | 0.929 | 0.707 | 0.525 | 0.669 | 0.461 | 0.453 | 0.357 |
| 0.693 | 0.528 | 0.454 | VNFQPYRKHKF [TEX37_Y28_D24N_YF] | 0.546 | 0.34 | 0.386 | 0.365 | 0.371 | 0.373 | 0.545 | 0.439 | 0.459 | 0.408 | 0.43 | 0.542 | 0.431 |
| 1.23 | 0.847 | 0.696 | HMEAVYIDIAD [PITPNA_Y140_V136M] | 3.91 | 9.76 | 5.08 | 13.6 | 10.2 | 8.49 | 2.85 | 3.86 | 2.85 | 2.26 | 1.43 | 1.06 | 3.62 |
| 0.997 | 0.703 | 0.493 | ELPEKYSQNIC [PKP2_Y626_Y631C] | 1.01 | 0.538 | 0.605 | 0.518 | 0.599 | 0.446 | 1.12 | 0.497 | 0.533 | 1.18 | 0.544 | 0.956 | 0.579 |
| 0.586 | 0.52 | 18.6 | TLERHYEELQA [SPTBN2_Y834] | 1.04 | 0.648 | 0.522 | 0.472 | 0.677 | 1.7 | 1.06 | 0.541 | 0.591 | 0.947 | 0.578 | 0.836 | 0.505 |
| 0.819 | 0.483 | 1.25 | AHPIIYDIIEA [PYKtide_D_2014] | 1.41 | 12.7 | 10.7 | 0.699 | 0.794 | 11.9 | 2.13 | 7.74 | 8.25 | 0.949 | 9.44 | 5.89 | 6.44 |
